According to paper PMC12440821, “ACAD10 and ACAD11 enable mammalian 4-hydroxy acid lipid catabolism” (Nature Structural & Molecular Biology, 2025):
Substitutions are numbered along the chain they refer to.

B1: ACAD11 K* mutant (kinase-inactive mouse acyl-CoA dehydrogenase 11) (enzyme, UniProt Q80XL6 1-779, looked up)
chain: METDVTSDTVEVLPQHKFDLRSLEAYLNQHLPGFGSDSRAVLTVTQYRSGQSNPTFFLQKGSQAYVLRKKPPGSLLPKAHKIDREFKIQKALFSIGFPVAKPLLYCRDASVIGTEFYVMEHVQGRIFRDFSIPGVSSAERAAIYVSVAETLAWLHSLDIRSLKLDKYGTGVGYCKRQVSTWTKQYQASAHQSIPAMDQLSTWLMKNLPDSDSEECLVHGAFKLDNIVFHPKECRVIAVLDWELSTFGHPLTDLAHLSLFYYWPRTLPMINRGSHIPENTGIPLMEELISIYCHRRGIDPNLPNWNFFMALSFFKLAGISQGVYRRYLMGNNSSEDSFLTANTVQPLAETGLQLSKRTLRTTPPQADAKSQLFAQSRRGQEVLTRVKQFMKQHVFPAEKEVAEYYAQSGNSAEKWGHPLVIEKLKEMAKAEGLWNLFLPAVSGLSQVDYALIAEETGKCFFAPDVFNCQAPDTGNMEVLHLYGSEQQKKQWLEPLLRGDITSVFCMTEPNVSSSDATNIECTIQRDGGGYIVNGKKWWSSGAGNPKCKIAIVLGRTESPSASRHRQHSMILVPMDTPGVELIRPLSVFGYMDNMHGGHWEVHFNHVRVPASNLILGEGRGFEISQGRLGPGRIHHCMRTVGLAERILQIMCDRAVQREAFKKKLYEHEVVAHWIAKSRIAIEEIRLLTLKAAHSIDTLGSASARKEIAMIKVAAPKAVCKIADWAIQVHGGAGVSQDYPLANMYAIIRTLRLADGPDEVHLSAIAKMELQDQARRLTARM
notes: catalytic aspartate of the kinase domain replaced with alanine; only the ACAD domains were resolved in the map; Cloned in pE-SUMOstar with a 5' SUMO tag; tag removed with Ulp1; Sample held FAD and 100 uM 4-HV-CoA; also called kinase-dead mutant; source: E. coli B21-CodonPlus (DE3)RIPL, purified (Ni-NTA, cation exchange, size-exclusion chromatography); not shown: SUMO, N-terminal, cleaved
B2: ACAD11 A* mutant (ACAD-inactive mouse acyl-CoA dehydrogenase 11) (enzyme, UniProt Q80XL6 1-779, looked up)
chain: B1 chain with A220D, D753N
notes: catalytic aspartate of the ACAD domain replaced with asparagine; kinase and ACAD domains both resolved; Cloned in pE-SUMOstar with a 5' SUMO tag; tag removed with Ulp1; Sample held FAD and 100 uM 4-PV-CoA; also called ACAD-dead mutant; source: E. coli B21-CodonPlus (DE3)RIPL, purified (Ni-NTA, cation exchange, size-exclusion chromatography); not shown: SUMO, N-terminal, cleaved

Tests used:
[1] = target: the molecule itself; assay: cryo-EM structure; single-particle cryo-EM of ACAD11 K* incubated with 100 uM 4-HV-CoA; 50 mM HEPES, 50 mM NaCl, 2% glycerol, 50 uM FAD, pH 7.5; D2 symmetry imposed; 2.6 A
[2] = target: the molecule itself; assay: cryo-EM structure; single-particle cryo-EM of ACAD11 A* incubated with 100 uM 4-PV-CoA; 50 mM HEPES, 50 mM NaCl, 2% glycerol, 50 uM FAD, pH 7.5; D2 symmetry imposed; 3.6 A

| Protein | stoichiometry N [1] | stoichiometry N [2] |
| --- | --- | --- |
| B1 | 4 |  |
| B2 |  | 4 |
